Experimental findings from IntAct's records for PubMed 29039417 are described below.

B1: BBSome complex member BBS5 (Homo sapiens), Q8N3I7 (parent)
chain: MSVLDALWEDRDVRFDLSAQQMKTRPGEVLIDCLDSIEDTKGNNGDRGRLLVTNLRILWHSLALSRVNVSVGYNCILNITTRTANSKLRGQTEALYILTKCNSTRFEFIFTNLVPGSPRLFTSVMAVHRAYETSKMYRDFKLRSALIQNKQLRLLPQEHVYDKINGVWNLSSDQGNLGTFFITNVRIVWHANMNDSFNVSIPYLQIRSIKIRDSKFGLALVIESSQQSGGYVLGFKIDPVEKLQESVKEINSLHKVYSASPIFGVDYEMEEKPQPLEALTVEQIQDDVEIDSDGHTDAFVAYFADGNKQQDREPVFSEELGLAIEKLKDGFTLQGLWEVMS
partner: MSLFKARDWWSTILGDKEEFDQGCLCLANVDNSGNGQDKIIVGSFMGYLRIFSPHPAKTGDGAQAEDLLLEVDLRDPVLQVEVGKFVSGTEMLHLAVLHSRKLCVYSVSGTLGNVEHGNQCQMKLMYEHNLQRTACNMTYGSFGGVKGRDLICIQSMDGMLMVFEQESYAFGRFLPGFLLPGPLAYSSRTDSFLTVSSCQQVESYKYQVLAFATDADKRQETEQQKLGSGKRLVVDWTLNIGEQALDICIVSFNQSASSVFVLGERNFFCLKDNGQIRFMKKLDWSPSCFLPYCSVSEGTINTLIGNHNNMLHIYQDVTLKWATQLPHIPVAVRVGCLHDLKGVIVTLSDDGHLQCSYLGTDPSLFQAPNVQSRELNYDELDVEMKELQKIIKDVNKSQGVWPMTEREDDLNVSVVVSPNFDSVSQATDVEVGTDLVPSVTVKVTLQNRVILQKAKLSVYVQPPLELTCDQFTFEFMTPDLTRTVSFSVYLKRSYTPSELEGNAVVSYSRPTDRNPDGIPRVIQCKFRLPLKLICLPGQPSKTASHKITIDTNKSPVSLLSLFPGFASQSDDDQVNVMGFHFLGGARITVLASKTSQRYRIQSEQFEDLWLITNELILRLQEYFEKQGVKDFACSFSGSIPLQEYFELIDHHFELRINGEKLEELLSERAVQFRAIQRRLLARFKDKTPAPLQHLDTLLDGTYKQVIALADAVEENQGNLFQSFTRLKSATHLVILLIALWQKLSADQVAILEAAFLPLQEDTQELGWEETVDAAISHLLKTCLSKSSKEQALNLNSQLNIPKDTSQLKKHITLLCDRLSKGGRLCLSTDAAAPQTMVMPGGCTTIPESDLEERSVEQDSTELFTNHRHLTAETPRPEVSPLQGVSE

The test covers variants of B1. To be noted: with pthb1_human BBS9, Q3SYG4.
Take D195E: the “effect of a mutation on the interaction” value is given as “with no effect”.

Take D195A: the “effect of a mutation on the interaction” value was “with no effect”.

On to D195K, for which the “effect of a mutation on the interaction” value is “with no effect”. As to M193A, the “effect of a mutation on the interaction” value is recorded as “with no effect”. With M193K, the “effect of a mutation on the interaction” value was “with no effect”.

With M193E, the “effect of a mutation on the interaction” value was “with no effect”. In the case of N198E, the “effect of a mutation on the interaction” value is recorded as “with no effect”. For N198A the value was “with no effect”; for N198K, “with no effect”; for G217A, “with no effect”. The entry for D213A is “with no effect”; for D213K it is “with no effect”. Turning to D213E, the “effect of a mutation on the interaction” value was “with no effect”. For A191K the value was “with no effect”; for A191E, “with no effect”. Consider K210E, for which the “effect of a mutation on the interaction” value was “with no effect”.

Consider K210A, for which the “effect of a mutation on the interaction” value is given as “with no effect”. Take Q205K: the “effect of a mutation on the interaction” value is reported as “with no effect”. For Q205E the value was “with no effect”. Turning to Q205A, the “effect of a mutation on the interaction” value is “with no effect”. For S196A the value was “with no effect”. For S196K the value was “with no effect”. The entry for S196E is “with no effect”; for K215A it is “with no effect”; for K215E it is “with no effect”. For the variant I206K, the “effect of a mutation on the interaction” value was “with no effect”. The entry for I206A is “with no effect”; for I206E it is “with no effect”.

R207E: the “effect of a mutation on the interaction” value is recorded as “with no effect”. For R207A, the “effect of a mutation on the interaction” value is recorded as “with no effect”. Regarding R207K, the “effect of a mutation on the interaction” value is reported as “with no effect”. Take N192A: the “effect of a mutation on the interaction” value is given as “with no effect”. For N192E the value was “with no effect”. Take N192K: the “effect of a mutation on the interaction” value was “with no effect”. Take I209E: the “effect of a mutation on the interaction” value is “with no effect”. Turning to I209K, the “effect of a mutation on the interaction” value is “with no effect”. The entry for I209A is “with no effect”; for N194K it is “with no effect”; for N194A it is “with no effect”.

Turning to N194E, the “effect of a mutation on the interaction” value is “with no effect”. The entry for R186E is “disrupting interaction strength”. For R186K the value was “disrupting interaction strength”; for R186A, “with no effect”; for Y203K, “with no effect”. For Y203E the value was “with no effect”. Y203A: the “effect of a mutation on the interaction” value is reported as “with no effect”. For V185K the value was “with no effect”; for V185E, “with no effect”; for H190K, “with no effect”. Take H190A: the “effect of a mutation on the interaction” value was “with no effect”. As to H190E, the “effect of a mutation on the interaction” value was “with no effect”. Take S200K: the “effect of a mutation on the interaction” value is on record as “with no effect”. The entry for S200E is “with no effect”; for S200A it is “with no effect”; for R212E it is “with no effect”. The entry for R212A is “with no effect”; for R212K it is “with no effect”; for F216K it is “with no effect”. On to F216E, for which the “effect of a mutation on the interaction” value is “with no effect”.

With F216A, the “effect of a mutation on the interaction” value is reported as “with no effect”. For I211E, the “effect of a mutation on the interaction” value is “with no effect”. With I211K, the “effect of a mutation on the interaction” value was “with no effect”. The entry for I211A is “with no effect”; for L204K it is “with no effect”; for L204A it is “with no effect”. For L204E the value was “with no effect”; for F197E, “with no effect”; for F197A, “with no effect”. With F197K, the “effect of a mutation on the interaction” value is on record as “with no effect”.

Turning to V188E, the “effect of a mutation on the interaction” value was “with no effect”.

On to V188K, for which the “effect of a mutation on the interaction” value is listed as “with no effect”. Take V188A: the “effect of a mutation on the interaction” value was “with no effect”. For I187K the value was “with no effect”. The entry for I187A is “with no effect”; for I187E it is “with no effect”. With V199E, the “effect of a mutation on the interaction” value was “with no effect”. The entry for V199A is “with no effect”; for V199K it is “with no effect”; for W189A it is “with no effect”. For W189K the value was “with no effect”.

With W189E, the “effect of a mutation on the interaction” value is reported as “with no effect”. The entry for I201A is “with no effect”. The entry for I201K is “with no effect”; for I201E it is “with no effect”; for P202E it is “with no effect”.

As to P202A, the “effect of a mutation on the interaction” value is reported as “with no effect”. For the variant P202K, the “effect of a mutation on the interaction” value was “with no effect”. Turning to S214E, the “effect of a mutation on the interaction” value is on record as “with no effect”.

S214K: the “effect of a mutation on the interaction” value is listed as “with no effect”. Turning to S214A, the “effect of a mutation on the interaction” value was “with no effect”. For S208E the value was “with no effect”. Consider S208A, for which the “effect of a mutation on the interaction” value was “with no effect”. For S208K the value was “with no effect”.
